Drawing on US20170029530A1 (AbbVie / Abbott, published 2017), this text covers binding result and Kd for eight molecules.

One assay addresses T1, cDPEP3 (Macaca fascicularis, UniProt Q4R7M2).
T1 construct: extracellular domain; also called cynomolgus DPEP3-His; cynomolgus DPEP3 ECD with histidine tag
T1 sequence (single chain, looked up): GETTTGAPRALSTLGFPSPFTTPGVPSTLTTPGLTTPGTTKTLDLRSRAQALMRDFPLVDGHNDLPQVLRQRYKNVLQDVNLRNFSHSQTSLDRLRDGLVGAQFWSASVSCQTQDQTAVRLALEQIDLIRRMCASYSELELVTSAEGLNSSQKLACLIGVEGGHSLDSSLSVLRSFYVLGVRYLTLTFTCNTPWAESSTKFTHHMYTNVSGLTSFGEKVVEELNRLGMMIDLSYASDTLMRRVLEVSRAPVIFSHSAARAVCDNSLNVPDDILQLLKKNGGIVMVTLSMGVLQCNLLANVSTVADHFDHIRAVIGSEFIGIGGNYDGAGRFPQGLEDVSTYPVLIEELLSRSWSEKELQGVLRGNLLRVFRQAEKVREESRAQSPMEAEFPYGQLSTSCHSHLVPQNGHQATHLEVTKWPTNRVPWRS
The experiment in a line: ELISA, coated antigen. As for the experimental part: (§1) The anti-DPEP3 antibodies were screened by ELISA for cross-reactivity with mouse, rat and cynomolgus DPEP3 and for cross reactivity to hDPEP2, the closest DPEP3 family member. ELISA was conducted as follows. Plates were coated with purified mouse, rat or cynomolgus DPEP3-His or hDPEP2-His at 0.3 μg/mL in 0.2 M carbonate-bicarbonate buffer, pH 9.4 overnight at 4° C. The protein solution was removed and the wells were blocked with 1% (w/v) BSA in PBS (PBSA), 100 μL/well for 1 hour at 37° C. Anti-DPEP3 antibody or a mouse isotype control antibody was then added at 1 μg/mL in 50 μL PBSA for 1 hour at room temperature. After washing with water, 50 μL/well HRP-labeled goat anti-mouse IgG antibody diluted 1:10,000 in PBSA was added for 30 min at room temperature. The plates were washed and developed by the addition of 40 μL/well of the TMB substrate solution (Thermo Scientific) at room temperature. An equal volume of 0.2 M H₂SO₄ was added to stop substrate development. The samples were then analyzed by spectrophotometer at OD 450. […] The cross reactivity results for exemplary DPEP3-specific antibodies can be seen in FIG. 4.

For a further assay, the target named is T2, mDPEP3 (limits assumed).
T2 construct: also called mouse DPEP3-His; mouse DPEP3 ECD with histidine tag
T2 single chain: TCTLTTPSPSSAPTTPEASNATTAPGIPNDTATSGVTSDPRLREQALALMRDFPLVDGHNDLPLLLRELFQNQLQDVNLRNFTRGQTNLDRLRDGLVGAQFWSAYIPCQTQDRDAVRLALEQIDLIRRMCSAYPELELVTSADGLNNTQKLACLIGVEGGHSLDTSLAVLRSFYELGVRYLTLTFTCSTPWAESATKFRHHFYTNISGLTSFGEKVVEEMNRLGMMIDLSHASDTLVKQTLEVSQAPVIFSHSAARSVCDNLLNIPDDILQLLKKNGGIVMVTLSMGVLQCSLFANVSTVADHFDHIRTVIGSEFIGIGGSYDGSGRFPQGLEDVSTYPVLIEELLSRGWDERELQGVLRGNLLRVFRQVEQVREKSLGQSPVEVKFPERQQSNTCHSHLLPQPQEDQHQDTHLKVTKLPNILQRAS
The experiment in a line: ELISA, coated antigen. As to the method: as §1
(An ELISA detects its analyte on a solid surface through an enzyme-linked reagent.)

Assay [1] deals with T3, hDPEP2 ECD with histidine tag (human, UniProt Q9H4A9 33-463).
T3 construct: also called hDPEP2-His; not shown: histidine tag
The experiment in a line: ELISA, coated antigen. As for the experimental part:
as §1

Assay [2] addresses T4, rat DPEP3 ECD with histidine tag (rat, UniProt Q5U2X4 36-459, limits assumed).
T4 construct: also called rDPEP3-His; ratDPEP3-His; not shown: histidine tag
T4 sequence: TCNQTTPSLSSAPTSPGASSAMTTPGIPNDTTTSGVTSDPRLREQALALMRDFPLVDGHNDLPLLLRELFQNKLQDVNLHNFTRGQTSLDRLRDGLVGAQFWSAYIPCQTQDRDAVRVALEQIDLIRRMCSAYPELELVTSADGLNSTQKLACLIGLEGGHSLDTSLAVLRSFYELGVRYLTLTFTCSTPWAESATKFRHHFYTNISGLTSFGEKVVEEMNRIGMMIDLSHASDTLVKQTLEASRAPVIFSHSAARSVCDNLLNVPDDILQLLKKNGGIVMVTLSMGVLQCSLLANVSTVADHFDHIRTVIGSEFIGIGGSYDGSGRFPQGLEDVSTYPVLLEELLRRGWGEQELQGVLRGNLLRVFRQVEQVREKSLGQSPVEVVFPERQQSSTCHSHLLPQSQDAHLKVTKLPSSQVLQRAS
The experiment in a line: ELISA, coated antigen. As to the method:
as §1

A further assay addresses T5, hDPEP3-ECD-His (human, UniProt Q9H4B8 36-463).
T5 construct: also called hDPEP3-His; monomeric hDPEP3-His antigen; not shown: histidine tag
T5 sequence: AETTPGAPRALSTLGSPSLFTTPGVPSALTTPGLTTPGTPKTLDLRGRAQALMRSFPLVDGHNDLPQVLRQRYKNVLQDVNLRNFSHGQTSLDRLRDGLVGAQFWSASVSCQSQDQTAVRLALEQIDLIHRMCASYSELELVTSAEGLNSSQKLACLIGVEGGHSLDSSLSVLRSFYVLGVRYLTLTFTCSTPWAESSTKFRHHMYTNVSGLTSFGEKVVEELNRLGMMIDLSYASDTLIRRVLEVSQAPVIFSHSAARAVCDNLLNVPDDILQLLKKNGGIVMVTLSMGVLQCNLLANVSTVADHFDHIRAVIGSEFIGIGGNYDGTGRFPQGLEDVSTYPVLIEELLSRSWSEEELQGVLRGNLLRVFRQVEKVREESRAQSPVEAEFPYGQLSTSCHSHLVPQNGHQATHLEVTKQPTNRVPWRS
The experiment in a line: BLI ForteBio RED, 200 nM hDPEP3-His, estimated grade. As to the method:
The affinity of the antibodies for hDPEP3-His was qualitatively determined from kinetics curves generated with a ForteBio RED as follows. Anti-DPEP3 antibodies were immobilized onto anti-mouse Fc capture biosensors with a contact time of 3 mins. and a flow rate of 1000 rpm. The captured antibody loading from baseline was constant at 0.3-1 units. Following antibody capture and 30 second baseline, the biosensors were dipped into a 200 nM solution of hDPEP3-His for a 4 min. association phase followed by a 3 min. dissociation phase at a shaking rate of 1000 rpm. The biosensors were regenerated by dipping into 10 mM glycine, pH 1.7 following each cycle. The data was processed by subtracting a control mouse IgG surface response from the specific antibody response and data was truncated to the association and dissociation phase. The association and dissociation curves were used to qualitatively estimate the affinities of selected antibodies. […] A designation of “ND” means that the estimated KD was not determined.

Substitutions are numbered along the chain they refer to. “And” between values parts separate entries of the source, which are not always exact repeats. Identical values can stand only once. Some results are limits rather than exact numbers.

T3 sequence (Q9H4A9 33-463): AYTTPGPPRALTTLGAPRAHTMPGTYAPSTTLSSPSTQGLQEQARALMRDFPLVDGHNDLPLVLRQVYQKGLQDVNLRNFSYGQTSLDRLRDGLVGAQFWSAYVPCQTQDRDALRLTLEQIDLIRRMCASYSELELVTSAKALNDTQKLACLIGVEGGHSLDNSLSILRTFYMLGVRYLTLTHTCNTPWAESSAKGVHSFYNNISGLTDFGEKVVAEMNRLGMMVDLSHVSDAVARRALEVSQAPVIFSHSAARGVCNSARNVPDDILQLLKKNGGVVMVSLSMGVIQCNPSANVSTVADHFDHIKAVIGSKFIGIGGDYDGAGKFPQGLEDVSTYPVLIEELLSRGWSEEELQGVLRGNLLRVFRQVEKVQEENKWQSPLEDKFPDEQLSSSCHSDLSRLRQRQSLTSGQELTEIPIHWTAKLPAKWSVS

B1: SC34.71 (antibody, mouse IgG2a, V domains shown)
VH: QVSLKESGPGILQPSQTLSLTCSFFGFSLSTSSMGVGWIRQPSGKGLEWLANIWWDNNKYYNAALKSRLTISKDTSKNQVFLNIASVDTTDTATYYCARIESYYSNRAWFPYWGRGTLVTVSA
VL: DIVMTQSQKFMSTSVGDRVSITCKASQNVRTAVAWYQQKPGQSPKTLIYLASNRHTGVPDRFTGSGSGTDFTLTISYVQSEDLADYFCLQHLNYPWTFGGGTKLEIK
For B1, the binding result (with cDPEP3; with mDPEP3; in assay [1]; in assay [2]) was “no binding (tested: 1 ug/mL)” in each case. Further, the Kd with hDPEP3-ECD-His is under 5 nM.

B2: SC34.87 (antibody, mouse IgG2a, V domains shown)
VH: QVQLQQSGAELAKPGASVKMSCKASGYTFTSYWMLWVKQRPGQGLEWIGYIDPRNGYTEYNQKFKDKATLTADKSSSTAYMQLSSLTSEDSAVYYCTRGGNVAMDYWGQGTSVTVSS
VL: DIVMSQSPSSLAVSAGEKVTMSCKSSQSLLNSRTRKNYLAWYQQKPGQSPKLLIYWASTRESGVPGRFTGSGSGTDFTLTISSVQAEDLAVYYCKQSYNLWTFGGGTKLEIK
For the molecule B2, the binding result (in the assay with cDPEP3; with mDPEP3; in assay [1]) was “no binding (tested: 1 ug/mL)” in each case. Further, the Kd with hDPEP3-ECD-His is ≥ 5 nM and ≤ 10 nM.

B3: SC34.39 (antibody, mouse IgG2a, V domains shown)
VH: QVQLQQSGAELMKPGASVKISCKATGYTFSNYWIEWVKQRPGHGLEWIGEILPGSDSTYFNEKFKGKATFTADTSSNTAYMQLSSLTSEDSAVYYCTIRSAAYYSNPEWFAYWGQGTLVTVSA
VL: QIVLTQSPAIMSASQGERVTMTCTASSSVSSNYLHWYQQKPGSSPKLWIYSTSHLASGVPVRFSGSGSGTSYSLTISSMEAEDAATYYCHQYHRSPYTFGGGTKLEIK
B3: the binding result (with cDPEP3; with mDPEP3; in assay [1]; in assay [2]) was “no binding (tested: 1 ug/mL)” each time. Further, the Kd with hDPEP3-ECD-His was under 5 nM.

B4: SC34.5 (antibody, mouse IgG1, V domains shown)
VH: EVQLQQSGPELVKPGASMKISCKASGYSFTGYTMNWVKQSHGKNLEWIGLIYPYNDDTRYKQKFKGKATLTVDKSSSTAYMELLSLTSEDSAVYYCTRGYYGSPYFDVWGAGTTVTVSS
VL: DIVMTQFPSSLAMSVGQKVTMNCKSSQSLLNSSNQKNYLAWFQQKPGQSPKLLVYFASTRESGVPDRFLGSGSGTDFTLTISSVQAEDLADYFCQQHYSTPFTFGSGTKLEIK
notes: also called SC34.05
Consider B4, for which the binding result (with cDPEP3; with mDPEP3; in assay [1]; in assay [2]) was “no binding (tested: 1 ug/mL)” throughout. Also, the Kd in the assay with hDPEP3-ECD-His was under 5 nM.

B5: SC34.6 (antibody, mouse IgG1, V domains shown)
VH: B4 VH with A16T, K61N, Q62R, S77N, E89V, Y94C, T97A, Y100S, Y105F
VL: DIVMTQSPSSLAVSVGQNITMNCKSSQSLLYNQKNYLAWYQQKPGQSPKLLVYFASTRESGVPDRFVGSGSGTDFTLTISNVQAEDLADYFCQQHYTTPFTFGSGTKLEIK
notes: also called SC34.06
On to B5, for which the binding result (in the assay with cDPEP3; with mDPEP3; in assay [1]; in assay [2]) was “no binding (tested: 1 ug/mL)” throughout. In addition, the Kd in the assay with hDPEP3-ECD-His was under 5 nM.

B6: SC34.14 (antibody, mouse IgG1, V domains shown)
VH: EVQLQQSGPEMVKPGASVKISCKASGYIFTDYYMHWVKQSHGESLDWIGRVNPKKGGTTYNQKFEGKAILTVDKSSSTAYMDLNSLTSEDSAVYYCAMGIYYSYDASFDYWGQGTTLTVSS
VL: DIQMTQAPASLSPSVGATVTITCRTSEHIYSYLAWYQQKQGKSPRLLVYNAKTLAEGVSSRFSGSGSGTQFSLQINSLQPEDFGNYYCQHHYDTPYTFGGGTKLEIK
For the molecule B6, the binding result (with cDPEP3; in the assay with mDPEP3; in assay [2]) was “no binding (tested: 1 ug/mL)” each time. Further, the Kd in the assay with hDPEP3-ECD-His was under 5 nM.

B7: SC34.48 (antibody, mouse IgG1, V domains shown)
VH: B6 VH with P9L, E43K, I69T, Y102F
VL: B6 VL with P13A, A17E, E27G, R45Q, Q74K, N76T, N85D
For B7, the binding result (in the assay with cDPEP3; with mDPEP3; in assay [2]) was “no binding (tested: 1 ug/mL)” in each case. Moreover, the Kd with hDPEP3-ECD-His was under 5 nM.

B8: SC34.78 (antibody, mouse IgG1, V domains shown)
VH: DVQLQESGRGLVKPSQSLSLTCTVTGYSLTSDFAWNWIRQFPGNKLEWMGYIRYSGTTSYNPSLKSRISITRDTSKNQFFLQLNSVTTEDTATYYCGYGNYGYAMDYWGQGTSVTVSS
VL: DIMMTQSPATLSVTPGDRVSLSCRASQSIGAYLHWYQQKSHESPRLLIKYVSQSISGIPSRFSGSGSGSDFTLSINSVEPEDVGVYYCQNGHSFPLTFGAGTKLELK
With B8, the binding result (with cDPEP3; with mDPEP3; in assay [1]; in assay [2]) was “no binding (tested: 1 ug/mL)” in each case. In the assay with hDPEP3-ECD-His, the Kd is over 10 nM.

The term Kd denotes a measure of binding affinity in units of concentration.
